{
  "source": "paper PMC6399291",
  "key": {"14-3-3β": {"target": "14-3-3β (UniProt P31946)", "sequence (P31946 whole entry, looked up)": "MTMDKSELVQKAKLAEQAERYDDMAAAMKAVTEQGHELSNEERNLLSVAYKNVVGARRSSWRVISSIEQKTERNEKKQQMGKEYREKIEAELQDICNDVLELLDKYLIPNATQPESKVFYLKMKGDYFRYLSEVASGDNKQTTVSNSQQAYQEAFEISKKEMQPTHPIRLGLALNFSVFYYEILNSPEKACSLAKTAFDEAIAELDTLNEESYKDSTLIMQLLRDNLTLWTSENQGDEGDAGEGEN", "test": "GFP-14-3-3β IP, anti-myc blot", "settings": "reference: wild type; sites S351,S377"}, "CDK4 [1]": {"target": "CDK4 (UniProt P11802)", "sequence (P11802 whole entry, looked up)": "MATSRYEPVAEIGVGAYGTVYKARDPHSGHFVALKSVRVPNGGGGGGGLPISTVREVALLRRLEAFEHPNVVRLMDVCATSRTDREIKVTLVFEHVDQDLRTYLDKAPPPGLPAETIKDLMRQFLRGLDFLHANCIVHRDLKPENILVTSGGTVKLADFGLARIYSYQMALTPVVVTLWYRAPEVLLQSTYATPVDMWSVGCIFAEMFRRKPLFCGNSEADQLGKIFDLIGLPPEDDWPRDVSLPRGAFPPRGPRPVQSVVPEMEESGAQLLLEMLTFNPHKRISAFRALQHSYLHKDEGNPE", "test": "reciprocal co-IP, anti-GFP or anti-CDK4", "settings": "reference: wild type; sites S351,S377"}, "CDK4 [2]": {"target": "CDK4 (UniProt P11802)", "test": "glutathione-bead pull-down from co-transfected cells, anti-Flag blot", "settings": "sites S351,S377"}},
  "data": [
    {"substance": "PIKE-A (from UniProt Q99490-2) S351/377A (SA)", "values": [
      {"measurement": "binding against the reference", "setting": "14-3-3β", "value": "weaker"}
    ]},
    {"substance": "PIKE-A (from UniProt Q99490-2) SA", "values": [
      {"measurement": "binding against the reference", "setting": "CDK4 [1]", "value": "weaker"}
    ]},
    {"substance": "PIKE-A (from UniProt Q99490-2) SA + myc-AMPKα T172A", "values": [
      {"measurement": "binding against the reference", "setting": "CDK4 [2]; reference: wild type + myc-AMPKα T172A", "value": "weaker"}
    ]},
    {"substance": "PIKE-A (from UniProt Q99490-2) SA + myc-AMPKα T172D", "values": [
      {"measurement": "binding against the reference", "setting": "CDK4 [2]; reference: wild type + myc-AMPKα T172D", "value": "weaker"}
    ]}
  ]
}
